FACS MFI data for 17 molecules are collected here from US20230095569A1.

Assay [1] deals with mouse Claudine18.2 (mouse) (UniProt P56857). Briefly: FACS on CHOK1-m18.2 cells.
The target of assay [2] is Rhesus monkey Claudine18.2 (Rhesus monkey) (UniProt F6YQY3). Briefly: FACS on CHOK1-rh18.2 cells.
Assay [3] addresses human Claudin18.1 (CLDN18.1) (human) (UniProt P56856). Briefly: FACS on CHOK1-18.1 cells.

Sequence of human Claudin18.1 (CLDN18.1) (human) (P56856 whole entry): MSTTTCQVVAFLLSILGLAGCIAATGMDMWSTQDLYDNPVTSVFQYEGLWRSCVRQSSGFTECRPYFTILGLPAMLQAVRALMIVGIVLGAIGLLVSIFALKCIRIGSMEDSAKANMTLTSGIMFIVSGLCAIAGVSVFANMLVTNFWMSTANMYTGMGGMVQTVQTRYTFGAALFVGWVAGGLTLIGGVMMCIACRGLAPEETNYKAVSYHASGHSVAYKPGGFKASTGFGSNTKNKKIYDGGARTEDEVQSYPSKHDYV

B1: Ab09 (antibody, V domains shown)
VH: EVQLQQSGPELVKPGTSVKMSCKASGYTFTDYNMHWVKLSHGKSLEWIGYINPNNGGTIYNQRFKGKATLTVNKSSRTAYMDLRSLTSEDSAVYYCARQGYYGNSMDYWGQGNSVTVSS
VL: DIVMTQSPSSLTVTPGERVTMSCKSSQSLLNGGNQRNYLTWYQQKPGQPPKLLIYWASTRESGVPDRFAGSGSGTDFTLTISRVQAEDLSFYYCQNSYFYPFTFGSGTKLDLR
With B1, the FACS MFI in assay [1] worked out at 12600; in assay [2], 8100.

B2: Ab02 (antibody, V domains shown)
VH: QVQLKESGPGLVAPSQSLSITCTVSGFSLTSYAINWVRQPPGKGLEWLGVIWTGGGTNYNSALKSRLSINKDNSKSQVFLKMNSLQTDDTARYYCARFYDGYYSWFAYWGQGTLVTVSA
VL: DIVMTQSHKFMSTSVGDRVSITCKASQDVGTAVTWYQQKPGQSPKLLIYWASTRHTGVPDRFTGSGSGTDFTLTISNVQSEDLADYFCQQYSSYPFTFGSGTKLEIK
As for B2, the FACS MFI in assay [1] worked out at 2040; in assay [2], 1400.

B3: Ab36 (antibody, V domains shown)
VH: EVKLEESGGGLVQPGGSMKLSCVASGFTFSNYWMNWVRQSPEKGLEWVAQIRLKSDNYATHYAESVKGMFTISRDDSKSSVYLQMNNLRAEDTGIYYCTAGGDYWGQGTTLTVSS
VL: DIVMTQSQKFMSTTVGDRVSITCKASQNVGTAVAWYHQKPGQSPKLLIYSASNRYTGVPDRFIGSGSGTDFTLTISNVQSEDLGNYFCQQYINYLLTFGSGTKLEIK
In the case of B3, the values for the FACS MFI in assay [1], in assay [3] and in assay [2] were 21600, 4300 and 17400, respectively.

B4: Ab18 (antibody, V domains shown)
VH: QVQLKESGPGLVAPSQSLSITCTVSGFSLTTYGINWVRQPPGKGLEWLGVIWGDGSTNYHSALISRLSISKDNSKSQVFLKLNSLQTDDTATYYCVKSSYYGNAMDYWGQGTSVTVSS
VL: DIVMTQSPSSLTVTAGETVTMSCKSSQSLLNSGNQKNYLTWYQQKPGQPPKLLIYWASTRESGVPDRFTGSGSGTDFTLTISSVQAEDLAVYYCQNVYSYPFTFGSGTKLEI
Consider B4, for which the FACS MFI in assay [1] was determined as 13500; in assay [2], 7890.

B5: Ab17 (antibody, V domains shown)
VH: QVQLKESGPGLVAPSQSLSITCTVSGFSLTSYAISWVRQPPGKGLEWLGEIWTGGGTNYNSALKSRLSISKDNSKSQVFLKMNSLQTDDTARYYCGRLSYGNSLDYWGQGTTLTVSS
VL: DIVMTQSPSSLTVTAGEKVTMSCKSSQSLLNSGNQKNYLTWYQQKPGQPPKLLIYWASTRESGVPDRFTGSGSGTDFTLTVSSVQAEDLAVYYCQNNFIYPLTFGPGTKLELK
With B5, the results for the FACS MFI in assay [1] and in assay [2] were 13300 and 6680, respectively.

B6: Ab01 (antibody, V domains shown)
VH: DVQLQESGPGLVKPSQSLSLTCSVTGYSITSGYYWNWIRQFPGNKLEWMGYITYDGSNNYNPSLKNRISITRDTSKNQFFLKLNSVTTEDAATYFCARDPNYYGTTLPAWFVYWGQGTLVTVSA
VL: DIVVTQSHKFMSTSVGDRVSITCKASQDVGTAVAWYQQKPGQSPKLLIYWASTRHTGVPDRFTGSGSGTDFTLTISNVQSEDLTDYFCQQYSSYVTFGAGTKLELK
Take B6: the FACS MFI in assay [1] was 12700; in assay [2], 8380.

B7: Ab12 (antibody, V domains shown)
VH: EVMLVESGGGLVKPGGSLKLSCAASGFTFSSYTMSWVRQTPEKRLEWVATIIGGYGNTYYADSVKGRFTISRDSAKNTLYLQMLSLRSEDTALYYCTRLGQTQRNAMDYWGQGTSVTVSS
VL: DILMTQSPSSLSVSAGEKVTMSCKSSQSLLNSGNQRNYLAWYQQKPGQPPKLLIYGASTRESGVPDRFTGSGSGTDFTLTISSVQAEDLAVYYCQNDYYYPLTFGAGTKLELK
As for B7, the values for the FACS MFI in assay [1] and in assay [2] were 13100 and 7610, respectively.

B8: Ab20 (antibody, V domains shown)
VH: EVMLVESGGGLVKPGGSLKLSCVASGFTFSSYTMSWVRQTPEKRLEWVATIIGGYGNTYYSDSVKGRITISRDSAKNTLYLQMISLRSEDTALYYCTRLGQTQRNAMDYWGQGTSVTVSS
VL: DILMTQSPSSLSVSAGEKVTMNCKSSQSLLNSGNQKNYLAWYQQKPGQPPKLLIYGASTRESGVPDRFTGSGSGTDFTLTISSVQAEDLAVYYCQNDYYYPFTFGAGTKLEL
For the molecule B8, the FACS MFI was found to be 13800 in assay [1] and 7050 in assay [2].

B9: Ab13 (antibody, V domains shown)
VH: EVRLVESGGGLVKPGGSLKLSCAGSGFTFSSYTMSWVRQTPEKRLEWVATITIGVNIYYLDSVKGRFTISRDNAKNTLYLQMNSLRSEDTALYYCTRLGQTQRNAMDYWGQGTSVTVSS
VL: DIVMTQSPTSLSVSAGEKVTMTCKSSQSLLNSGNQKNYLAWYQEKPGQPPKLLIYGASTRESGVPDRFTGSGSGTDFTLTISSVQAEDLAVYYCQNNHFYPLTFGAGTKLELK
With B9, the FACS MFI in assay [1] is 12500; in assay [2] it was 5630.

B10: Ab16 (antibody, V domains shown)
VH: EVMLVESGGGLVKPGGSLKLSCAASGFTFNSYTMSWVRQTPEKRLEWVATITVIGGNTYYLDSVKGRFTISIDNGKNTLYLQMSSLRSEDTALYYCARMGQTQRNAMDYWGQGTSVTVSS
VL: DIVMTQSPSSLSVSAGQKVTMRCKSSQSLLNSGNQKNYLAWYQQKLGQPPKLLIYGASTRESGVPDRFSGSGSGTDFTLTITSVQAEDLAVYYCQNDYSFPLTFGAGTKLELK
As for B10, the figures for the FACS MFI in assay [1] and in assay [2] were 14300 and 6660, respectively.

B11: Ab21 (antibody, V domains shown)
VH: EVMLVESGGGLVKPGGSLKLSCAASGFTFSSYTMSWVRQTPEKRLEWVATIIGGYGNTYYVDSVKGRFTISRDSAKNTLYLQMISLRSEDTALYYCTRLGQTQRNAMDYWGQGTSVTVSS
VL: DILMTQSPSSLSVSAGEKVTMSCKSSQSLLNSGNQKNYLAWYQQKPGQPPKLLIYGASTRESGVPDRFTGSGSGTDFTLTISSVQAEDLAVYYCQNDYYYPFTFGAGTKLEL
With B11, the values for the FACS MFI in assay [1] and in assay [2] were 15200 and 8240, respectively.

B12: Ab22 (antibody, V domains shown)
VH: EVMLVESGGGLVKPGGSLKLSCAASGFTFSSYTMSWVRQTPEKRLEWVATIIGGYGNTYYADSVKGRFTISRDSAKNTLYLQMISLRSEDTALYYCTRLGQTQRNAMDYWGQGTSVTVSS
VL: DILMTQSPSSLSVSAGEKVTMSCKSSQSLLNSGNQKNYLAWYQQKPGQPPKLLIYGASTRESGVPDTFTGSGSGTDFTLTISSVQAEDLAVYYCQNDYYYPFTFGAGTKLEL
B12: the results for the FACS MFI in assay [1] and in assay [2] were 15500 and 7330, respectively.

B13: Ab15 (antibody, V domains shown)
VH: EVMLVESGGDLVKPGGSLKLSCAASGFTFSTYTMSWVRQTPEKRLEWVATIVGGGGYTYYLDSVKGRFTISRDNAKNTLYLQMISLRSEDTALYYCARMGLTQRNALDYWGQGTSITVSS
VL: DIVMTQSPSSLSVSEGEKVTLNCKSSQSLFNSGNQKNYLAWYQQKPGQPPKLLIYGASTRESGVPDRFTGSGFGTDFTLTISSVQAEDLAVYYCQNDHTYPLTFGAGAKLELK
Regarding B13, the FACS MFI in assay [1] came out at 12200; in assay [2], 6320.

B14: Ab11 (antibody, V domains shown)
VH: EVMLVESGGDLVKPGGSLKLSCAASGFTFSRYTMSWVRQTPEKRLEWVATVSVGSGNTYYLDSVKGRFTISRDNAKNTLFLQMNSLRSEDTALYYCTRLGQTQRNAVDYWGQGTSVTVSS
VL: DIVMTQSPSFLSVSAGEKVTMSCKSSQSLFNGGNQKNYLAWYQQKPGQPPKLLIYGASTRDSGVPDRFTGSGSGTDFTLTISNVQAEDLAIYFCQNDHSFPLTFGAGTKLELK
For B14, the FACS MFI in assay [1] worked out at 11200; in assay [2] it was 7800.

B15: Ab19 (antibody, V domains shown)
VH: EVMLVESGGDLVKPGGSLKLSCAASGFSFSRYTMSWVRQTPEKRLEWVATVSVGSGNTYYLDSVKGRFTISRDNAKNTLFLQMSSLRSEDTALYYCARMGQTQRNAVDYWGQGTSVTVSS
VL: DIVMTQSPSSLSVSAGEKVTMSCKSSQSLFNSGNQKNYLAWYQQKPGQPPKLLIYGASTRESGVPDRFTGSGSGTDFTLTISNVQAEDLAVYLCQNDHSFPLTFGAGTKLEL
As to B15, the values for the FACS MFI in assay [1] and in assay [2] were 13400 and 6290, respectively.

B16: Ab24 (antibody, V domains shown)
VH: EVKLVESGGGLVKPGGSLKLSCAGSGFTFSSYTMSWVRQTPEKRLEWVATITIGVNIYYLDSVKGRFTISRDNAKNTLYLQMNSLRSEDTALYYCTRLGQTQRNAMDYWGQGTSVTVSS
VL: DIVMTQSPTSLSVSAGEKVTMTCKSSQSLFNSGNQKNYLAWYQEKPGQPPKLLIYGASTRESGVPDRFTGSGSGTDFTLTISSVQAEDLAVYYCQNVHFYPFTFGAGTKLEL
Take B16: the FACS MFI in assay [1] was 12800; in assay [2], 7520.

B17: Ab38 (antibody, V domains shown)
VH: QIQLVQSGPELKKPGETVKISCKASGYTFTNYGMSWVKQAPGKGLKWMGWINTYSGVPTYADDFKGRFVFSLEASASTAYLQINNLKNEDAATYFCSRWSGPDPLEDHWGQGTTLTVSS
VL: QIVLTQSPAIMSASPGEKVTMTCTASLSLNYIHWYRQRSGTSPKRWIYDTSKLASGVPSRFSGSGSGTSYSLTISSMEAEDAATYYCQQWSSNPWTFGGGTKLEIK
For B17, the figures for the FACS MFI in assay [1], in assay [3] and in assay [2] were 20400, 4470 and 15600, respectively.
